# From US20160264649A1
# Experiments:
# Test in all cases: cell-based or functional assay
# [1] = target: HIV-1 Env of isolate MGRM-Chronic-B-008 (subtype B) (HIV-1)
# [2] = target: HIV-1 Env of isolate THR0.18 (subtype B) (HIV-1)
# [3] = target: HIV-1 Env of isolate SC422661.8 (subtype B) (HIV-1)
# [4] = target: HIV-1 Env of isolate JRCSF (subtype B) (HIV-1) (UniProt P20871)
# [5] = target: HIV-1 Env of isolate NL43 (subtype B) (HIV-1)
# [6] = target: HIV-1 Env of isolate MG RM-C-025 (subtype C) (HIV-1)
# [7] = target: HIV-1 Env of isolate MGRM-Chronic-B-010 (subtype B) (HIV-1)
# [8] = target: HIV-1 Env of isolate TRJ04551.58 (subtype B) (HIV-1)
# [9] = target: HIV-1 Env of isolate 92 BR 020 (subtype B) (HIV-1)
# [10] = target: HIV-1 Env of isolate MG RM-C-019 (subtype C) (HIV-1)
# [11] = target: HIV-1 Env of isolate MGRM-Chronic-B-004 (subtype B) (HIV-1)
# [12] = target: HIV-1 Env of isolate MG RM-C-028 (subtype C) (HIV-1)
# [13] = target: HIV-1 Env of isolate MGRM-Chronic-B-017 (subtype B) (HIV-1)
# [14] = target: HIV-1 Env of isolate APV_6 (subtype B) (HIV-1)
# [15] = target: HIV-1 Env of isolate MG RM-C-022 (subtype C) (HIV-1)
# [16] = target: HIV-1 Env of isolate VLGCB3 (subtype B) (HIV-1)
# [17] = target: HIV-1 Env of isolate 93TH305 (subtype B) (HIV-1)
# [18] = target: HIV-1 Env of isolate MGRM-Chronic-B-001 (subtype B) (HIV-1)
# [19] = target: HIV-1 92RW008 Env (HIV-1)
# [20] = target: HIV-1 Env of isolate MG RM-C-027 (subtype C) (HIV-1)
# [21] = target: HIV-1 Env of isolate 98IN022 (subtype C) (HIV-1)
# [22] = target: HIV-1 Env of isolate MGRM-Chronic-B-003 (subtype B) (HIV-1)
# [23] = target: HIV-1 Env of isolate 93MW959 (subtype C) (HIV-1)
# [24] = target: HIV-1 Env of isolate 6535.3 (subtype B) (HIV-1)
# [25] = target: HIV-1 Env of isolate APV_13 (subtype B) (HIV-1)
# [26] = target: HIV-1 Env of isolate MGRM-Chronic-B-011 (subtype B) (HIV-1)
# [27] = target: HIV-1 Env of isolate PVO.4 (subtype B) (HIV-1)
# [28] = target: HIV-1 Env of isolate CAAN.A2 (subtype B) (HIV-1)
# [29] = target: HIV-1 Env of isolate 97ZA012 (subtype C) (HIV-1)
# [30] = target: HIV-1 Env of isolate MG RM-C-023 (subtype C) (HIV-1)
# [31] = target: HIV-1 Env of isolate MG RM-C-020 (subtype C) (HIV-1)
# [32] = target: HIV-1 Env of isolate MGRM-Chronic-B-020 (subtype B) (HIV-1)
# [33] = target: HIV-1 Env of isolate MGRM-Chronic-B-012 (subtype B) (HIV-1)
# [34] = target: HIV-1 Env of isolate MG RM-C-024 (subtype C) (HIV-1)
# [35] = target: HIV-1 Env of isolate MGRM-Chronic-B-018 (subtype B) (HIV-1)
# [36] = target: HIV-1 Env of isolate QH0692.42 (subtype B) (HIV-1)
# [37] = target: HIV-1 Env of isolate APV_17 (subtype B) (HIV-1)
# [38] = target: HIV-1 Env of isolate MG RM-C-026 (subtype C) (HIV-1)
# [39] = target: HIV-1 Env of isolate MGRM-Chronic-B-023 (subtype B) (HIV-1)
# [40] = target: HIV-1 Env of isolate TRO.11 (subtype B) (HIV-1)
# [41] = target: HIV-1 Env of isolate MGRM-Chronic-B-002 (subtype B) (HIV-1)
# [42] = target: HIV-1 Env of isolate JRFL (subtype B) (HIV-1)
# [43] = target: HIV-1 Env of isolate MGRM-Chronic-B-024 (subtype B) (HIV-1)
# [44] = target: HIV-1 Env of isolate 93IN905 (subtype C) (HIV-1)
# [45] = target: HIV-1 Env of isolate SF162 (subtype B) (HIV-1) (UniProt P19550)
# 4993_K13 (PGT-141) (antibody), sequence (VH): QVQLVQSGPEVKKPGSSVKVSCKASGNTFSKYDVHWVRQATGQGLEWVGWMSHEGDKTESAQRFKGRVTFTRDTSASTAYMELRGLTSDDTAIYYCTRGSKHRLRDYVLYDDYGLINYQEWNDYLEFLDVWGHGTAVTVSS
# 4993_K13 (PGT-141) (antibody), sequence (VL): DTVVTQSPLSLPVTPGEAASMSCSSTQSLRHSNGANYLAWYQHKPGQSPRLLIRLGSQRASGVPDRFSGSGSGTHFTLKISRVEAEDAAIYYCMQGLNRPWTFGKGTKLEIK
# 4970_K22 (PGT-144) (antibody), sequence (VH): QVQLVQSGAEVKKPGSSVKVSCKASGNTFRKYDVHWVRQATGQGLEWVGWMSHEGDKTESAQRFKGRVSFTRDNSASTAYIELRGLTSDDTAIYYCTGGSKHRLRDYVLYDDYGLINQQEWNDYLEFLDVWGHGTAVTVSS
# 4970_K22 (PGT-144) (antibody), sequence (VL): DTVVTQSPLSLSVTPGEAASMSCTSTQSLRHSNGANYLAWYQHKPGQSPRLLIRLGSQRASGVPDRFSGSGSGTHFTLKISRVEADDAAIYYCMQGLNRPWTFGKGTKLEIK
# 4995_E20 (PGT-142) (antibody), sequence (VH): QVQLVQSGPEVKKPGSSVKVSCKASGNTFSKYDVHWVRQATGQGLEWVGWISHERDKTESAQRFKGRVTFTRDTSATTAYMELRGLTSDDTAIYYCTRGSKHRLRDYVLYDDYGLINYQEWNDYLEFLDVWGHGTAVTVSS
substance,measurement,setting,value
4995_E20 (PGT-142) (antibody),IC50,[1],> 50 µg/mL
same,IC50,[2],0.012 µg/mL
same,IC50,[3],3.15 µg/mL
same,IC50,[4],0.01 µg/mL
same,IC50,[5],> 50 µg/mL
same,IC50,[6],0.183 µg/mL
same,IC50,[7],> 50 µg/mL
same,IC50,[8],> 50 µg/mL
same,IC50,[9],15.1 µg/mL
same,IC50,[10],0.003 µg/mL
same,IC50,[11],0.172 µg/mL
same,IC50,[12],2.12 µg/mL
same,IC50,[13],0.076 µg/mL
same,IC50,[14],4.72 µg/mL
same,IC50,[15],0.086 µg/mL
same,IC50,[16],> 50 µg/mL
same,IC50,[17],5.86 µg/mL
same,IC50,[18],> 50 µg/mL
same,IC50,[19],0.447 µg/mL
same,IC50,[20],0.792 µg/mL
same,IC50,[21],0.001 µg/mL
same,IC50,[22],0.484 µg/mL
same,IC50,[23],0.001 µg/mL
same,IC50,[24],> 50 µg/mL
same,IC50,[25],> 50 µg/mL
same,IC50,[26],0.994 µg/mL
same,IC50,[27],0.066 µg/mL
same,IC50,[28],> 50 µg/mL
same,IC50,[29],> 50 µg/mL
same,IC50,[30],0.087 µg/mL
same,IC50,[31],0.446 µg/mL
same,IC50,[32],> 50 µg/mL
same,IC50,[33],> 50 µg/mL
same,IC50,[34],0.03 µg/mL
same,IC50,[35],0.323 µg/mL
same,IC50,[36],> 50 µg/mL
same,IC50,[37],0.628 µg/mL
same,IC50,[38],> 50 µg/mL
same,IC50,[39],0.486 µg/mL
same,IC50,[40],0.27 µg/mL
same,IC50,[41],> 50 µg/mL
same,IC50,[42],> 50 µg/mL
same,IC50,[43],0.005 µg/mL
same,IC50,[44],0.001 µg/mL
same,IC50,[45],> 50 µg/mL
4993_K13 (PGT-141) (antibody),IC50,[1],> 50 µg/mL
same,IC50,[2],0.007 µg/mL
same,IC50,[3],1.66 µg/mL
same,IC50,[4],0.009 µg/mL
same,IC50,[5],> 50 µg/mL
same,IC50,[6],0.247 µg/mL
same,IC50,[7],> 50 µg/mL
same,IC50,[8],> 50 µg/mL
same,IC50,[9],20.3 µg/mL
same,IC50,[10],0.008 µg/mL
same,IC50,[11],0.586 µg/mL
same,IC50,[12],13.8 µg/mL
same,IC50,[13],0.147 µg/mL
same,IC50,[14],14.2 µg/mL
same,IC50,[15],0.381 µg/mL
same,IC50,[16],> 50 µg/mL
same,IC50,[17],> 50 µg/mL
same,IC50,[18],> 50 µg/mL
same,IC50,[19],0.579 µg/mL
same,IC50,[20],3.27 µg/mL
same,IC50,[21],0.001 µg/mL
same,IC50,[22],0.4 µg/mL
same,IC50,[23],0.003 µg/mL
same,IC50,[24],> 50 µg/mL
same,IC50,[25],> 50 µg/mL
same,IC50,[26],2.24 µg/mL
same,IC50,[27],0.113 µg/mL
same,IC50,[28],> 50 µg/mL
same,IC50,[29],> 50 µg/mL
same,IC50,[30],0.153 µg/mL
same,IC50,[31],1.34 µg/mL
same,IC50,[32],> 50 µg/mL
same,IC50,[33],> 50 µg/mL
same,IC50,[34],0.101 µg/mL
same,IC50,[35],0.572 µg/mL
same,IC50,[36],> 50 µg/mL
same,IC50,[37],0.59 µg/mL
same,IC50,[38],> 50 µg/mL
same,IC50,[39],0.318 µg/mL
same,IC50,[40],0.383 µg/mL
same,IC50,[41],> 50 µg/mL
same,IC50,[42],> 50 µg/mL
same,IC50,[43],0.011 µg/mL
same,IC50,[44],0.001 µg/mL
same,IC50,[45],> 50 µg/mL
4970_K22 (PGT-144) (antibody),IC50,[1],> 50 µg/mL
same,IC50,[2],0.029 µg/mL
same,IC50,[3],> 50 µg/mL
same,IC50,[4],0.149 µg/mL
same,IC50,[5],> 50 µg/mL
same,IC50,[6],17.6 µg/mL
same,IC50,[7],> 50 µg/mL
same,IC50,[8],> 50 µg/mL
same,IC50,[9],44 µg/mL
same,IC50,[10],0.513 µg/mL
same,IC50,[11],9.41 µg/mL
same,IC50,[12],> 50 µg/mL
same,IC50,[13],0.712 µg/mL
same,IC50,[14],> 50 µg/mL
same,IC50,[15],2.58 µg/mL
same,IC50,[16],> 50 µg/mL
same,IC50,[17],> 50 µg/mL
same,IC50,[18],> 50 µg/mL
same,IC50,[19],> 50 µg/mL
same,IC50,[20],> 50 µg/mL
same,IC50,[21],0.171 µg/mL
same,IC50,[22],7.41 µg/mL
same,IC50,[23],0.332 µg/mL
same,IC50,[24],> 50 µg/mL
same,IC50,[25],> 50 µg/mL
same,IC50,[26],5.64 µg/mL
same,IC50,[27],0.535 µg/mL
same,IC50,[28],> 50 µg/mL
same,IC50,[29],> 50 µg/mL
same,IC50,[30],0.38 µg/mL
same,IC50,[31],1.29 µg/mL
same,IC50,[32],> 50 µg/mL
same,IC50,[33],> 50 µg/mL
same,IC50,[34],2.06 µg/mL
same,IC50,[35],2.4 µg/mL
same,IC50,[36],> 50 µg/mL
same,IC50,[37],10.3 µg/mL
same,IC50,[38],> 50 µg/mL
same,IC50,[39],> 50 µg/mL
same,IC50,[40],4.73 µg/mL
same,IC50,[41],> 50 µg/mL
same,IC50,[42],> 50 µg/mL
same,IC50,[43],0.04 µg/mL
same,IC50,[44],0.132 µg/mL
same,IC50,[45],> 50 µg/mL
